In patent US20230272054A1, “COMBINATION THERAPIES FOR THE TREATMENT AND PREVENTION OF BIOFILMS” (priority 2020, published 2023):
Entries after “also recorded” stand apart in the source; their conditions may differ.

How the values were obtained:
HJ DNA = experiment: Stabilization of HJ DNA at RT or 55° C, non-denaturing PAGE; assay type: binding; details: 32P HJ DNA, 25-500 nM protein, 10 min
Protocol: 5′ end-labeled ^32P HJ DNA was incubated with increasing concentrations (25-500 nM) of IHF (FIG. 8A), rHMGB1 (FIG. 8B) or RuvA (FIG. 8C) either at room temperature (RT) or at 55° C. for 10 min, then resolved on a 6% non-denaturing PAGE. Asterisk indicates melted oligos and arrows indicate DNA-protein complex. […] This outcome contrasts with that observed with both IHF and the prototypic HJ DNA binding protein, RuvA.
To test the hypothesis, HJ DNA was incubated with either HMGB1, the DNABII protein IHF, or the prototypic HJ DNA binding protein, RuvA at room temperature (RT) or 55° C. (melting temperature of HJ DNA) and resolved the complexes by non-denaturing polyacrylamide gel electrophoresis (PAGE). […] (FIG. 8) as indicated by the decrease in abundance of the shifted HJ DNA-HMGB1 complex (arrow) and the concomitant increase in the constituent melted oligos (asterisk).
Electrophoretic mobility shift assay (EMSA): EMSA was performed as previously described (Devaraj et al., 2019).

[1] = test system: eDNA lattice within K. pneumoniae biofilms; experiment: Visualization of eDNA lattice structure within K. pneumoniae biofilms (immunofluorescence, CLSM); assay type: cell-based, Klebsiella pneumoniae; details: 24 h K. pneumoniae biofilms, 200 nM protein, 16 h
Excerpt: Per the model as disclosed herein, HMGB1 would compete with DNABII proteins, wherein instead of stabilization, HMGB1 would de-stabilize these HJ-like structures and consequently disrupt the biofilm.

Human neutrophils = experiment: NET formation by neutrophils incubated with HMGB1 isoforms (CLSM); assay type: cell-based; details: 200 nM protein, 3.5 h
Protocol: Neutrophils were fixed, then labeled as described above to visualize the NETs.
Visualization of NETs structure upon incubation of neutrophils with various isoforms of HMGB1: Human neutrophils were isolated from blood using the EASYSEP™ isolation kit (Stemcell Technologies Inc.). […] NETs were fixed in formalin, blocked with 10% normal goat serum (Life Technologies), and labeled with α-dsDNA monoclonal antibody (1 μg), and α-neutrophil elastase polyclonal antibody (1 μg) or naive rabbit and mouse isotype controls (1 μg) in 200 μl PBS for 16 h hours at 4° C. NETs were washed with PBS and incubated for 1 h with 1:200 dilution goat α-rabbit IgG conjugated to ALEXAFLUOR® 594, goat α-mouse IgG conjugated to ALEXAFLUOR® 488, and 1:500 dilution wheat germ agglutinin conjugated to ALEXAFLUOR® 350 (PMN membrane stain). NETs were imaged with a Zeiss LSM 800 confocal microscope (Carl Zeiss Inc.) and rendered with Zeiss Zen software.

[2] = Inflammatory cell recruitment into lungs of B. cenocepacia-challenged mice (H&E, flow cytometry of BAL); assay type: in vivo, C57BL/6 mice; details: B. cenocepacia-challenged mice, 0.2 nmol, 72 hpi
neutrophils in BAL = experiment: as above; assay type: in vivo, C57BL/6 mice; details: B. cenocepacia-infected and simultaneously treated, 0.2 nmol, 18 hpi
TNF-α = experiment: Mouse model of endotoxemia, serum TNF-α by ELISA; assay type: in vivo, C57BL/6 mice; details: i.p. 0.2 nmol endotoxin-free rHMGB1 or LPS 5 mg/kg; 24 h
Protocol: Since excess HMGB1 can mediate dysregulated host response to infection associated with septic shock, the ability of rHMGB1 (0.2 nmol; the concentration used to treat in vivo biofilms) to induce septic shock was evaluated in mice. Mice were injected i.p. with either 0.2 nmol endotoxin-free rHMGB1, lipopolysaccharide (LPS; 5 mg/kg) or both, then monitored for signs of septic shock for 24 hours.
Mouse model of endotoxemia: C57BL/6 mice were injected i.p. with 5 mg/kg of E. coli lipopolysaccharide (Sigma), or 0.2 nmol rHMGB1 alone or in combination with LPS. Animals were euthanized 24 h later, serum was collected, and TNF-α was quantified by ELISA (ThermoFisher).

[3] = test system: pro-inflammatory and anti-inflammatory cytokines; experiment: Quantitation of cytokines in middle ear fluids (cytometric bead array); assay type: in vivo, chinchilla (Chinchilla lanigera); details: six days after NTHI challenge, one day after completion of treatment
Protocol: Quantitation of cytokines in middle ear fluids: To quantitate cytokines in middle ear fluids (MEF), a BD™ Cytometric Bead Array was performed with fluids collected at the time of animal sacrifice. With BD™ human-specific Flex Sets, each MEF was individually examined for relative quantity of IL-1β, IL-4, IL-6, IL-8, IL-10, IL12-p70, IL-13, IL-17A, TNF or IFNγ according to manufacturer's instructions. MEFs from each animal were assayed individually. Data were captured on a BD ACCURI™ C6 cytometer (BD Biosciences) and analyzed with FlowJo software (FlowJo, LLC). The concentration of cytokines in each MEF was determined using a standard curve and calculated using GraphPad Prism software.

B. cenocepacia = experiment: Murine model of lung infection by B. cenocepacia, bacterial burden; details: 0.2 nmol i.t. at 24 hpi; 72 hpi; α-EF-Tu labeling
Protocol: Intratracheal challenge of the murine lung with B. cenocepacia and treatment with HMGB1 isoforms: B. cenocepacia strain K56-2, was cultured in LB broth (Difco, Md.) at 37° C. overnight at 200 rpm. Bacterial concentration was adjusted before each experiment based on OD at 600 nm. C57BL/6 mice were infected intratracheally (i.t.) with 10^7 colony forming units (CFU) of B. cenocepacia. […] Animals were euthanized 24 or 48 hpi, and bronchoalveolar lavage (BAL) was collected with 1 ml of PBS plus 1 mM EDTA. […] The slides were permeabilized with 0.5% Triton X-100 for 10 minutes, blocked with 10% normal goat serum (Abcam) for 30 minutes and stained with a monoclonal antibody against E. coli Elongation Factor-Tu (α-EF-Tu; cross reacts with B. cenocepacia) (LSBio) overnight to label B. cenocepacia. The samples were then stained with goat α-mouse IgG Alexa Fluor 488 (Abcam) for 1 h at RT, mounted with fluoroshield media with DAPI (Abcam), visualized via the Nikon Eclipse Ti at 40× magnification (Nikon Instrument Inc. Americas) and analyzed by ImageJ software (NIH). To enumerate bacterial burden, the animals were euthanized 18 or 72 hpi, bronchoalveolar lavage was collected with 1 ml of PBS plus 1 mM EDTA, an aliquot of BAL was serially diluted and plated on LB agar. […] Neither animals nor samples were excluded from evaluation in any study.

UPEC biofilms [4] = experiment: Disruption of 24 h UPEC biofilms in vitro (CLSM, COMSTAT average thickness); details: 24 h UPEC biofilms, indicated concentrations of rHMGB1
S. aureus biofilms = experiment: Disruption of 24 h S. aureus biofilms in vitro (CLSM, COMSTAT average thickness); details: 24 h biofilms, 16 h; non-bactericidal dose
E. faecium biofilms = experiment: Disruption of 24 h E. faecium biofilms in vitro (CLSM, COMSTAT average thickness); details: 24 h biofilms, 1 h incubation; non-bactericidal dose
UPEC biofilms [5] = details: 24 h UPEC biofilms, rHMGB1 200 nM, 16 h
[6] = test system: biofilms formed by UPEC, B. cenocepacia, NTHI, Enterobacter spp, S. aureus, K. pneumoniae, A. baumanii, P. aeruginosa, E. faecium; experiment: Disruption of 24 h bacterial biofilms in vitro by HMGB1 isoforms (LIVE/DEAD stain, CLSM, COMSTAT average thickness); details: 24 h biofilms of nine pathogens; 200 nM protein, 16 h (S. aureus 800 nM rHMGB1; E. faecium 800 nM, 1 h)

B1: rHMGB1: recombinant HMGB1 derived from a human, expressed and purified in E. coli, SEQ ID NO: 51; comparator to mHMGB1 (protein, listed as Homo sapiens)
chain: MGKGDPKKPRGKMSSYAFFVQTCREEHKKKHPDASVNFSEFSKKCSERWKTMSAKEKGKFEDMAKADKARYEREMKTYIPPKGETKKKFKDPNAPKRPPSAFFLFCSEYRPKIKGEHPGLSIGDVAKKLGEMWNNTAADDKQPYEKKAAKLKEKYEKDIAAYRAKGKPDAAKKGVVKAEKSKKKKEEEEGEEDEEDEEEEEDEEDEDEEEDDDDE
stabilization of HJ DNA at 55° C (melting temperature of HJ DNA) (HJ DNA): unstable at 55 °C
stabilization of HJ DNA at 55° C (melting temperature of HJ DNA) (HJ DNA; listed as HMGB1): unable to efficiently stabilize the HJ DNA at 55 °C
HJ DNA-protein complex at room temperature (RT) (HJ DNA): stable at RT
HJ DNA-protein complex at room temperature (RT) (HJ DNA; listed as HMGB1): bound to HJ DNA to form stable complexes at RT
biofilm bacteria (FilmTracer FM 4-64) [1]: substantial reduction in biofilm bacteria
web-like eDNA lattice structure within biofilm [1]: disruption of the web-like structure; also recorded: notably disrupted
induction of NET formation by neutrophils (Human neutrophils): intertwined NETs specifically formed; also recorded: modest effect on induction of NETs
infiltration of inflammatory cells into lungs (H&E) [2]: significant infiltration of inflammatory cells
neutrophils in BAL (flow cytometry) (neutrophils in BAL): significantly greater number of neutrophils in BAL compared to the control
serum TNF-α (septic shock) (TNF-α): did not induce septic shock; also recorded: did not induce detectable TNF-α
IL-1β in middle ear fluids [3]: significantly elevated concentration; also recorded: statistically significant increase
IL-17A in middle ear fluids [3]: significantly elevated concentration; also recorded: statistically significant increase
B. cenocepacia stained within the lung tissue (B. cenocepacia): significantly reduced bacterial load
dose dependence of UPEC biofilm disruption (UPEC biofilms [4]): dose-dependent disruption; also recorded: dose-dependent activity
dose required to achieve a similar reduction in biofilm average thickness, S. aureus (S. aureus biofilms): 800 nM
dose required to achieve a similar reduction in biofilm average thickness, E. faecium (E. faecium biofilms): 800 nM
bacteria in the planktonic state (UPEC biofilms [5]): statistically significant increase in the planktonic bacteria
biofilm-resident bacteria (UPEC biofilms [5]): statistically significant decrease in biofilm-resident bacteria
biofilm average thickness compared to control [6]: significantly disrupted bacterial biofilms; also recorded: significant reduction in biofilm average thickness
